According to patent publication US6479459 (IMMUNEX, dated 2002):

Target: T1, soluble elk/Fc fusion protein (rat elk extracellular domain fused to human IgG1 Fc) (rat; human, UniProt P09759 18-540; P01857 99-330 = IgG part, limits assumed)
T1 construct: extracellular domain;domain: Fc region; Expressed transiently in mammalian host cells and purified on protein A sepharose
Assay: Scatchard analysis; elk/Fc at various concentrations on CV1-EBNA-1 cells expressing LERK-5, detected with 125I-mouse anti-human IgG
Experimental: CV1-EBNA-1 cells in 10 cm² dishes were transfected with the recombinant expression vector containing LERK-5 DNA. The CV-1/EBNA-1 cell line (ATCC CRL 10478) constitutively expresses EBV nuclear antigen-1 driven from the CMV immediate-early enhancer/promoter. CV1-EBNA-1 was derived from the African Green Monkey kidney cell line CV-1 (ATCC CCL 70), as described by McMahan et al. (*EMBO J*. 10:2821, 1991).
The transfected cells were cultured for 24 hours, and the cells in each dish then were split into a 24-well plate. After culturing an additional 48 hours, a binding assay was conducted by the following procedure. The transfected cells (about 4×10^4 cells/well) were washed with BM-NFDM, which is binding medium (RPMI 1640 containing 25 mg/ml bovine serum albumin, 2 mg/ml sodium azide, 20 mM Hepes pH 7.2) to which 50 mg/ml nonfat dry milk has been added. The cells then were incubated for 1 hour at 37° C. with various concentrations of the elk/Fc fusion protein prepared in Example 2 or the hek/Fc fusion protein prepared in Example 3. Cells then were washed and incubated with a constant saturating concentration of a ^125I-mouse anti-human IgG in binding medium, with gentle agitation for 1 hour at 37° C. After extensive washing, cells were released via trypsinization. […]

T1 sequence (P09759 other isoform, or with tags, fused parts or gaps limits assumed): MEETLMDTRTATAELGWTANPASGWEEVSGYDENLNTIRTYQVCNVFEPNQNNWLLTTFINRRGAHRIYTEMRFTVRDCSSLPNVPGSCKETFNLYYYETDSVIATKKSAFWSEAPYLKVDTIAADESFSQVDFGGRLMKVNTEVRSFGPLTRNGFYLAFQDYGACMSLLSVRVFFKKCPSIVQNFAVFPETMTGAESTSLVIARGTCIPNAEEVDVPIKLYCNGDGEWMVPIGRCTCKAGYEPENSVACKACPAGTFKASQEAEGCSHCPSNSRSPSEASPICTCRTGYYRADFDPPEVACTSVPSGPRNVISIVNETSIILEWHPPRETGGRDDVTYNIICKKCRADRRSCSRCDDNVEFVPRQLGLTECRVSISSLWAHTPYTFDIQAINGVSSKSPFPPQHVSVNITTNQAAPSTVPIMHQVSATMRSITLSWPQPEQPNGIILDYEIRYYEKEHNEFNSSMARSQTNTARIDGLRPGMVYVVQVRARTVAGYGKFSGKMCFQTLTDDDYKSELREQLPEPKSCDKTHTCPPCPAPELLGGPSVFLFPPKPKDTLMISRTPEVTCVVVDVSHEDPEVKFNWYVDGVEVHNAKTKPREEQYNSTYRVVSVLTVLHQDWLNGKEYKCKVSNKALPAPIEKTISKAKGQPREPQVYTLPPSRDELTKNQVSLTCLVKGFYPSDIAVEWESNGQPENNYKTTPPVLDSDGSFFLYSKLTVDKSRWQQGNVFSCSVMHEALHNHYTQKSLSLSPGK

B1: human LERK-5 (recombinant, full length, expressed on the surface of transfected CV1-EBNA-1 cells) (ligand)
chain: KSIVLEPIYWNSSNSKFLPGQGLVLYPQIGDKLDIICPKVDSKTVGQYEYYKVYMVDKDQADRCTIKKENTPLLNCAKPDQDIKFTIKFQEFSPNLWGLEFQKNKDYYIISTSNGSLEGLDNQEGGVCQTRAMKILMKVGQDASSAGSTRNKDPTRRPELEAGTNGRSSTTSPFVKPNPGSSTDGNSAGHSGNNILGSEVALFAGIASGCIIFIVIIITLVVLLLKYRRRHRKHSPQHTTTLSLSTLATPKRSGNNNGSEPSDIIIPLRTADSVFCPHYEKVSGDYGHPVYIVQEMPPQSPANIYYKV
notes: The whole coding region of clone λ6 was expressed from pDC410 in CV1-EBNA-1 cells; also called clone λ6 protein
Q: Which Ka does the source give for B1 here?
A: 1.05e+09 M⁻¹
